Experimental data as given in US8637043B2, “Compositions useful as ligands for the formyl peptide receptor like 1 receptor and methods of use thereof” (Chemocentryx, Inc., priority 2001, dated 2014).
Where “and” joins values, the source holds several entries; their conditions need not be identical. Identical values can stand only once.

Columns and labels:
human monocytes [1] = experiment: Calcium flux in human monocytes; type: cell-based
Experimental: (§1) Ca^2+ mobilization responses were performed using the intracellular ratiometric fluorescent dye, lndo-1. Cells were loaded with Indo-1/AM (3 μM; Molecular Probes, Eugene, Oreg.) in culture medium (45 min, 20° C., 10^7 cells/ml). After dye loading, cells were washed once with 10 ml PBS) and resuspended at 10^6 cell/ml in HBSS containing 1% FBS. Cytosolic [Ca^2+] release was determined using excitation at 350 nm using a Photon Technology International fluorimeter (excitation at 350 nm, ratioed dual emission at 400 and 490 nm).
(§2) The human recombinant chemokines, leukotactin, MlP-1α, three known CKβ8 variants CKβ8(1-99), CKβ8(25-99), CKβ8-1(1-116) and a novel NH2-terminal truncated form of CKβ8-1, CKβ8-1 (25-116) were obtained from R&D Systems (Minneapolis, Minn.). Human monocytes were generated from buffy coats (Stanford Blood Center, Palo Alto, Calif.) following a standard protocol. Briefly, PBMC were isolated by standard density gradient centrifugation (Ficoll-Paque-Plus, Pharmacia). Monocytes were purified using CD14 Microbeads (Miltenyi, Auburn, Calif.) magnetic positive selection. Human neutrophils were isolated from fresh peripheral blood from healthy individuals by gradient centrifugation on Ficoll-Hypaque (Hyclone, Calif.).
The activity of the CCL23 variants was tested on freshly prepared human monocytes and neutrophils using the calcium flux test described in Example 1.
(§3) Human monocytes were either generated from buffy coats (Stanford Blood Center, Palo Also, Calif.) or from fresh blood of healthy individuals following a standard protocol. Briefly, PBMC were isolated by a Ficoll-Paque gradient centrifugation (Ficoll-Paque-Plus, Pharmacia). Monocytes were purified by CD14 Microbeads (Miltenyi) magnetic positive selection. Human neutrophils were isolated from fresh blood by dextran sedimentation and gradient centrifugation Ficoll-Paque gradient centrifugation. All cells were washed and resuspended (1×10^7/ml) in RPMI medium with 10% FBS.
as §1, with “an” for “the”, “Indo-1.” for “lndo-1.”, “Probes (Eugene, Oreg.))” for “Probes, Eugene, Oreg.)”, “cells/mi).” for “cells/ml).”, “(10” for “with 10”

human neutrophils [2] = experiment: Calcium flux in human neutrophils; type: cell-based; conditions: human neutrophils
Experimental: as §1, §2, §3
as §1, with “an” for “the”, “Indo-1.” for “lndo-1.”, “Probes (Eugene, Oreg.))” for “Probes, Eugene, Oreg.)”, “cells/mi).” for “cells/ml).”, “(10” for “with 10”

immature Dendritic Cells = experiment: Calcium mobilization, immature dendritic cells; type: cell-based, human
Experimental: (§4) Human recombinant CKβ8-1(25-116) chemokine was obtained from R&D Systems (Minneapolis, Minn.). The peptide SHAAGtides SEQ ID NO:1 and SEQ ID NO:6 and a control protein (the reverse sequence of SEQ ID NO:1) were synthesized and HPLC-purified using routine techniques as described in Sambrook et al., 1989, and Ausubel et al., 1999.
(§5) Immature DCs were derived by culturing CD14+ monocytes in the presence of GM-CSF and IL4. Briefly, monocytes were cultured in a T-175 flask at 10^6 cells/ml in RPMI/10% FCS. Recombinant human GM-CSF and IL4 were added on day 0, 2, 4 and 6 to a final concentration of 1000 u/ml and 500 u/ml, respectively. Cells were harvested on day 7 as immature DCs and characterized for surface protein expression by FACS analysis. DC maturation was carried out by culturing day 6 immature DCs in macrophage-conditioned medium (MCM). Briefly, day 6 immature DCs were harvested by centrifugation and resuspended in MCM at 10^6 cells/ml. The medium was supplemented with 1000 u/ml of GM-CSF and 500 u/ml IL4. After three more days of culture, cells were harvested as mature DCs and characterized by surface protein expression flow cytometry.
as §1, with “an” for “the”, “Indo-1.” for “lndo-1.”, “Probes (Eugene, Oreg.))” for “Probes, Eugene, Oreg.)”, “cells/mi).” for “cells/ml).”, “(10” for “with 10”

mature Dendritic Cells = experiment: Calcium mobilization, mature dendritic cells; type: cell-based, human
Experimental: as §4, §5
MCM was prepared as follows: PBMCs isolated from buffy coat were incubated at 37° C. in a plastic flask pre-coated with 10 mg/ml human IgG (Sigma, St Louis, Mo.) for 30 minutes. After 30 minutes, non-adherent cells were removed and adherent cells were washed three times with DPBS, then cultured in RPMI/10% human serum. Conditioned-medium was collected after 24 hours. TNF-α concentration, which is critical for DC maturation, was determined by using a TNF-α ELISA kit (R&D Systems, Minn.). The final TNF-α level in MCM was adjusted to 50 u/mi by mixing with RPMI/10% human serum, and was stored at −80 freezer until use.
as §1, with “an” for “the”, “Indo-1.” for “lndo-1.”, “Probes (Eugene, Oreg.))” for “Probes, Eugene, Oreg.)”, “cells/mi).” for “cells/ml).”, “(10” for “with 10”

monocytes [3] = experiment: Cross-desensitization with leukotactin, monocytes; type: cell-based, human
Experimental: (§6) In cross-desensitization tests tests, cells were stimulated sequentially with leukotactin and then the chemokines CKβ8(1-99), CKβ8(25-99), CKβ8-1(1-116), and CKβ8-1(25-116). On HEK293-CCR1 transfectants (prepared as in Example 1), leukotactin induced similar patterns of receptor desensitization to all variants.
(§7) Similar receptor cross-desensitization tests were performed using both monocytes and neutrophils (prepared as in Example 2).

neutrophils [4] = experiment: Cross-desensitization with leukotactin, neutrophils; type: cell-based, human
Experimental: as §6, §7

monocytes [5] = experiment: 125I-MIP-1α binding competition, monocytes; design: species or system human; conditions: Monocytes
Experimental: The binding characteristics of CCL23 variants was compared in human CCR1 expressing cells. The ability of MIP-1α and the CCL23 variants CKβ8(1-99), CKβ8(25-99), CKβ8-1(1-116) and CKβ8-1(25-116) to compete with ^125I-MIP-1α binding was investigated in HEK293-CCR1 cells (prepared as in Example 1). The cells were incubated with ^125I-labeled MIP-1α (final conc. {dot over (˜)}0.05 nM) in the presence of unlabeled chemokine (3 hours at 4° C.: 25 mM HEPES, 140 mM NaCl, 1 mM CaCl2, 5 mM MgCl2 and 0.2% BSA, adjusted to pH 7.1). Reactions mixtures were aspirated onto PEI-treated GF/B glass filters using a cell harvester (Packard). The filters were washed twice (25 mM HEPES, 500 mM NaCl, 1 mM CaCl2, 5 mM MgCl2, adjusted to pH 7.1). Scintillant (MicroScint-10; 35 μl) was added to dried filters and the filiters counted in a Packard Topcount scintillation counter. Data were analyzed and plotted using Prism software (GraphPad Software, San Diego, Calif.).
(§8) Simiar binding competition tests were conducted on monocytes and neutrophils. These cells were prepared as in Example 2.

human monocytes [6] = experiment: Migration assay (ChemoTx), human monocytes; type: cell-based; conditions: 90 min, 1-100 nM
Experimental: (§9) Migration assays were performed on monocytes and neutrophils. Human monocytes and neutrophils (prepared as in Exampe 2) were harvested and resuspended in chemotaxis medium (CM). The CM consisted of Hank's buffered salt solution (Gibco, Mass.) containing CaCl2 (1 mM) and MgSO4 (1 mM) with added 0.1% BSA (Sigma, St. Louis, Mo.). The assays were performed in 96-well ChemoTx® microplates (Neuroprobe, Mass.). Leukotactin, MlP-1α and chemokines (CKβ8(1-99), CKβ8(25-99), CKβ8-1(1-116) or CKβ8-1(25-116), prepared as in Example 1) were added to the lower wells (final volume 29 μL), and 20 μL of cell suspension (5×10^6 cells/mL for monocytes; 2.5×10^6 cells/mL for neutrophils) added to the polycarbonate filters (5 μm pore size for monocytes; 3 μm pore size for neutrophils). After incubation for 90 min (37° C., 100% humidity, 5% CO2), cells were removed from the upper surface of the filter by scraping. Cells that migrated into the lower chamber were quantified using the Quant cell proliferation assay kit (Molecular Probes, Oreg.).
The chemotactic activity on human monocytes and neutrophils of chemokines: CKβ8(1-99), CKβ8(25-99), CKβ8(1-116) and CKβ8(25-116); W peptides 1 and 2 and the SHAAGtide sequences SEQ ID NO:1 and SEQ ID NO:2 was determined in migration assays. The above peptides were prepared as in previous examples. The migration assays were performed in 96-well CHEMOTX® microplates (Neuroprobe) using the protocol described in Example 5.

human neutrophils [7] = experiment: Migration assay (ChemoTx), human neutrophils; type: cell-based; conditions: 90 min, 100 nM
Experimental: as §9, with “Leukotactin, MlP-1α and chemokines (CKβ8(1-99), CKβ8(25-99), CKβ8-1(1-116) or CKβ8-1(25-116), prepared as in Example 1) were added to the lower wells (final volume 29 μL), and 20 μL of cell suspension (5×10^6 cells/mL for monocytes; 2.5×10^6 cells/mL for neutrophils) added to the polycarbonate filters (5 μm pore size for monocytes; 3 μm pore size for neutrophils).” left out
The above peptides were prepared as in previous examples.

CCR1 = target: T1, CCR1 (Homo sapiens, UniProt P32246); experiment: 125I-MIP-1α binding competition, HEK293-CCR1 cells; conditions: HEK293-CCR1, 3 hours at 4° C.
T1 construct: full length cDNA encoding CCR1 was cloned by the polymerase chain reaction (PCR) from genomic DNA isolated from human peripheral blood cells; expressed in transfected cells; pcDNA3.1 vector)
T1 sequence (P32246 1-355): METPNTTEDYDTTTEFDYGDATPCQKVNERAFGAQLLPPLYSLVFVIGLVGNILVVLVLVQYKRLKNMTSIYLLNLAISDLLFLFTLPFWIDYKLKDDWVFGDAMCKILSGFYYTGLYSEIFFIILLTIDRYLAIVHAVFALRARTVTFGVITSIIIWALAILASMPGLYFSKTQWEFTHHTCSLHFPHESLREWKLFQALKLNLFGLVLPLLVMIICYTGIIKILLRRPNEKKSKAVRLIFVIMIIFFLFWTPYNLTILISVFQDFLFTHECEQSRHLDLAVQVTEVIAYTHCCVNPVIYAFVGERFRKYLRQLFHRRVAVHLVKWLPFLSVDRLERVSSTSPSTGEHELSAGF
Experimental: The binding characteristics of CCL23 variants was compared in human CCR1 expressing cells. […] Reactions mixtures were aspirated onto PEI-treated GF/B glass filters using a cell harvester (Packard). The filters were washed twice (25 mM HEPES, 500 mM NaCl, 1 mM CaCl2, 5 mM MgCl2, adjusted to pH 7.1). Scintillant (MicroScint-10; 35 μl) was added to dried filters and the filiters counted in a Packard Topcount scintillation counter. Data were analyzed and plotted using Prism software (GraphPad Software, San Diego, Calif.).

neutrophils [8] = experiment: MIP-1α binding, neutrophils; design: species or system human
Experimental: as §8

Gly Ala Ala His Ser Leu Thr Met Gin Pro Gly lie Lys Arg Arg Trp Leu Met (GAAHSLTMQPGIKRRWLM) [Control peptide (SEQ ID NO: 33), reference compound]
calcium flux (human monocytes [1]; human monocytes, Example 8): No significant calcium flux | calcium flux (human neutrophils [2]; Example 8): No significant calcium flux | calcium flux (immature Dendritic Cells): No significant calcium flux | calcium flux (mature Dendritic Cells): No significant calcium flux

B1: CKβ8(1-99): known CKβ8 (CCL23) variant, human recombinant chemokine from R&D Systems (protein, listed as Homo sapiens)
chain: RVTKDAETEFMMSKLPLENPVLLDRFHATSADCCISYTPRSIPCSLLESYFETNSECSKPGVIFLTKKGRRFCANPSDKQVQVCMRMLKLDTRIKTRKN
calcium release (human monocytes [1]; freshly prepared human monocytes, up to 250 nM): poor activity | calcium flux (human neutrophils [2]; 100 nM): neither MlP-1α nor CKβ8(1-99), CKβ8(25-99) or CKβ8(1-116) induced a calcium flux | desensitization by leukotactin prestimulation (monocytes [3]): completely desensitized | desensitization by leukotactin prestimulation (neutrophils [4]): inactive | IC50 (monocytes [5]): 10 nM and 10.3 nM | migration of monocytes (human monocytes [6]): moderate activity

B2: leukotactin: human recombinant chemokine, CCR1 agonist (protein, listed as Homo sapiens)
chain: SFHFAADCCTSYISQSIPCSLMKSYFETSSECSKPGVIFLTKKGRQVCAKPSGPGVQDCMKKLKPYSI
calcium flux (human neutrophils [2]; 100 nM): induced a calcium flux | migration of neutrophils (human neutrophils [7]): none of the known CCR1 ligands including leukotactin and MlP-1α was active

B3: MIP-1α: macrophage inflammatory protein, human recombinant chemokine, CCR1 ligand (protein, listed as Homo sapiens)
chain: SLAADTPTACCFSYTSRQIPQNFIADYFETSSQCSKPGVIFLTKRSRQVCADPSEEWVQKYVSDLE
calcium flux (human neutrophils [2]; 100 nM): neither MlP-1α nor CKβ8(1-99), CKβ8(25-99) or CKβ8(1-116) induced a calcium flux | IC50 (CCR1): 0.54 nM | IC50 (monocytes [5]): 0.27 nM | MIP-1α binding to neutrophils (neutrophils [8]): does not bind neutrophils | migration of neutrophils (human neutrophils [7]): none of the known CCR1 ligands including leukotactin and MlP-1α was active
